The results in this text go back to patent US20180216136.

In this series the test system is ZFN 30035 (AAVS1) (synthetic). Kind of series: cell_activity. The conditions noted are these: pair 30035:30054 in CD34+ cells, higher AAV6 donor dose, ZFN mRNA 40 ug/ml.

Where only a bound is given, the exact number is not on record here.

Consider “CCCCACTGTGGGGTGGAGGGGACAGATA (double strand) [AAVS1 30035 target]”, for which the activity (% targeted integration) is > 50.
